# Reference: PMC13017698
# Columns and labels:
# Assay in all cases: SEC
# [1] = target: PahZ1_(KT-1), poly(aspartic acid) hydrolase PahZ1 from Sphingomonas sp. KT-1 (Sphingomonas sp. KT-1)
# [2] = target: PahZ1Bfg, PahZ1 homolog from Brevifollis gellanilyticus (PahZ1-like domain fused to a CapA-like domain), residues 23-644 (Brevifollis gellanilyticus)
# [3] = target: PahZ1_(Spyx), PahZ1 homolog from Sphingopyxis sp. Root1497, residues 21-313 (Sphingopyxis sp. Root1497)
substance,measurement,setting,value
"PahZ1_(KT-1), poly(aspartic acid) hydrolase PahZ1 from Sphingomonas sp. KT-1 (enzyme)",stoichiometry N,[1],2
"PahZ1Bfg, PahZ1 homolog from Brevifollis gellanilyticus (PahZ1-like domain fused to a CapA-like domain), residues 23-644 (enzyme)",stoichiometry N,[2],2
"PahZ1_(Spyx), PahZ1 homolog from Sphingopyxis sp. Root1497, residues 21-313 (enzyme)",stoichiometry N,[3],2
